US20160096866A1 (University of Pennsylvania, published 2016)
Where two headings read alike, the source gives them in different places. Bridges are numbered along the chain shown (N, C = ends). [ ]: non-standard residue; d: D form. Trp(1-Me) = Cn1cc(C[C@H](N)C(=O)O)c2ccccc21; 2Nal = N[C@@H](Cc1ccc2ccccc2c1)C(=O)O

How the values were obtained:
[1] = target: T1, complement component C3 (human, UniProt P01024 23-1663, limits assumed); assay: cell-based or functional assay
[2] = target: T1, complement component C3; assay: cell-based or functional assay; remark: listed apart in the source
[3] = target: T1, complement component C3; assay: ITC; relative to the row 'Wild-type'
Protocol: Isothermal titration calorimetry experiments were performed using the Microcal VP-ITC calorimeter (Microcal Inc, Northampton, Mass.). Protein concentrations of 3.5-5 μM and peptide concentrations of 80-200 μM were used for these experiments. All titrations were performed in PBS (10 mM phosphate buffer with 150 mM NaCl, pH 7.4). In each experiment, the target protein, C3, was loaded into the cell, and peptide was loaded into the syringe. All experiments were performed at 25° C. and for each experiment, 2-μl peptide injections were made into the cell containing the protein. In each experiment, the raw isotherms were corrected for the heats of dilution by subtracting the isotherms representing peptide injections into the buffer. The resulting isotherms were fit to various models within the Origin 7.0 software, and the model that achieved the lowest chi square value was deemed to be appropriate for the respective dataset. Binding affinity and entropy values were plotted against log P values.
The calorimetric data obtained for the interaction of all the peptides with C3 fit to a one set of sites model with stoichiometry close to 1 (FIG. 4). […] As per the correlation, binding affinity increases with an increase in the hydrophobicity of the analog incorporated at position 4. This observation is consistent with the correlation shown between log P and the inhibitory constants.

[4] = target: T1, complement component C3; assay: cell-based or functional assay; remark: listed apart in the source

T1 sequence (P01024 23-1663 limits assumed): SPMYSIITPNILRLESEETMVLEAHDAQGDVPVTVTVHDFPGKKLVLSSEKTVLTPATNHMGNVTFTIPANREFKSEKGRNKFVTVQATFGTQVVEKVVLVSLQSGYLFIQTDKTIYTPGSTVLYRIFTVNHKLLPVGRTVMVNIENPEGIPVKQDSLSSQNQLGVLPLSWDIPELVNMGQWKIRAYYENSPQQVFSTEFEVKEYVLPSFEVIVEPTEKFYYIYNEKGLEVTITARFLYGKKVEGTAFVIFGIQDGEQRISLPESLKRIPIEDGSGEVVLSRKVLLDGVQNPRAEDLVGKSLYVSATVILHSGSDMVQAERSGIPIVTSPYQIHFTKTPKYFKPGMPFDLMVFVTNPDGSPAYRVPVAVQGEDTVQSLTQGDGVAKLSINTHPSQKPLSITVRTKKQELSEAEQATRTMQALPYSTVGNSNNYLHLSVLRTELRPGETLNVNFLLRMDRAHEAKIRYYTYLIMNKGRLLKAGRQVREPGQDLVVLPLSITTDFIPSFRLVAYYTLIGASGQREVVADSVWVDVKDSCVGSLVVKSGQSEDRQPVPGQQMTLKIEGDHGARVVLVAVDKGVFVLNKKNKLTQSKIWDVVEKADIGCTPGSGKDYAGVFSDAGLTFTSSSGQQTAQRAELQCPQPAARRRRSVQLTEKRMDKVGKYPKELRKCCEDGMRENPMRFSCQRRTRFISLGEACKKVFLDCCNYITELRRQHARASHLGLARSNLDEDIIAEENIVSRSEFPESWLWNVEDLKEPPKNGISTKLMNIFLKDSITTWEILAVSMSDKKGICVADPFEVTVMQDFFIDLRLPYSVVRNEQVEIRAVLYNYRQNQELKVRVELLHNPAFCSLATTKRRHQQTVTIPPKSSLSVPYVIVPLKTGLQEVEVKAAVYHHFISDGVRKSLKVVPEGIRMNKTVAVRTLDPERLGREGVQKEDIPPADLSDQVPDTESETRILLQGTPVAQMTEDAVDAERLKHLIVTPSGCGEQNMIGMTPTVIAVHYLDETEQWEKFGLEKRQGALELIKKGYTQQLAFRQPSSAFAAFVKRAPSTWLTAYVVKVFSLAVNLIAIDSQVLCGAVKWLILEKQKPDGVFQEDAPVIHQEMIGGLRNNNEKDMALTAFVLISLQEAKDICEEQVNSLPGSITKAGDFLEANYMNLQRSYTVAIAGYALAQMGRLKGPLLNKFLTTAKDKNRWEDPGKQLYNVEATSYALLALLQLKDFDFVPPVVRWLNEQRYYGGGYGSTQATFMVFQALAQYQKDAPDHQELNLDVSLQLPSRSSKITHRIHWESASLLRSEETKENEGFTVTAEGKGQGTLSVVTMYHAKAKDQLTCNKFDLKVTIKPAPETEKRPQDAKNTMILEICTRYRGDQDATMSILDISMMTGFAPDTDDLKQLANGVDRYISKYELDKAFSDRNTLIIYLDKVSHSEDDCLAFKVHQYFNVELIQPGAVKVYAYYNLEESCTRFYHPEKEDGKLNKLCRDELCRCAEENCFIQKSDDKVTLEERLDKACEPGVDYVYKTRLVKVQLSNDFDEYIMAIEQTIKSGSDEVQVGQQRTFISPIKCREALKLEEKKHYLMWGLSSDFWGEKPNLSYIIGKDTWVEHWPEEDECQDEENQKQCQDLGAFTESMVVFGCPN

Molecule | IC50, complement inhibition (C3b/iC3b deposition ELISA, human plasma) [1] [µM] | Relative activity (to compstatin, SEQ ID NO: 1) [1] [fold] | Activity over compstatin [1] [fold] | other results
Ac-V4W/7(5-methoxy W)/H9A (peptide) | 0.46 | 0.5 | – | –
G(-1)/V4(6fW)/W7(6fW)/H9A/N14 (peptide) | 0.43 | 126 | 126 | complement inhibitory activity relative to Ac-V4W/H9A [1]: 2.8 fold
G(-1)/V4(7-aza-W)/W7(7-aza-W)/H9A/N14 (peptide) | 122 | 0.44 | – | –
Ac-ICV[2Nal]QDWGAHRCT-NH2 (disulfide 2-12; SMILES CC[C@H](C)[C@H](NC(C)=O)C(=O)N[C@H]1CSSC[C@@H](C(=O)N[C@H](C(N)=O)[C@@H](C)O)NC(=O)[C@H](CCCNC(=N)N)NC(=O)[C@H](Cc2c[nH]cn2)NC(=O)[C@H](C)NC(=O)CNC(=O)[C@H](Cc2c[nH]c3ccccc23)NC(=O)[C@H](CC(=O)O)NC(=O)[C@H](CCC(N)=O)NC(=O)[C@H](Cc2ccc3ccccc3c2)NC(=O)[C@H](C(C)C)NC1=O, also called Ac-V4(2-Nal)/W7/H9A) [Ac-V4(2-Nal)/H9A] | – | – | – | IC50, complement inhibition (C3b/iC3b deposition ELISA, human plasma) [2]: 0.545 µM; -TΔΔS [3]: -16.7 kJ/mol; ΔΔG [3]: -0.418 kJ/mol; ΔΔH [3]: 16.2 kJ/mol
Ac-ICV[Trp(1-Me)]QDWGAHRCTRLIEDICLPRWGCLWEDD-NH2 (disulfide 2-12, 20-26) [4(1MeW)-ABP] | – | – | – | amount needed for the same complement inhibition as Ac-V4(1-methyl-W)/H9A [4]: 7 fold
ICVWQDWGAHRCTK (N-terminal acetyl; 1-methyltryptophan at position 4; lysine added at the C-terminus with PEG 5000 linked to its side chain) [Ac-V4(1-methyl-W)/H9A-K-PEG 5000] | – | – | – | amount needed for the same complement inhibition as Ac-V4(1-methyl-W)/H9A [4]: 7 fold

Second part, led by results:

IC50, complement inhibition (C3b/iC3b deposition ELISA, human plasma) [1] [µM] | Relative activity (to compstatin, SEQ ID NO: 1) [1] [fold] | Activity over compstatin [1] [fold] | Molecule | other results
33 | 1.6 | – | G(-1)/V4(5-OH-W)/W7(5-OH-W)/H9A/N14 (peptide) | loss of complement inhibitory activity relative to Ac-V4W/H9A [1]: 27.5 fold
0.48 | 112 | 112 | G(-1)/V4(5fW)/W7(5fW)/H9A/N14 (peptide) | complement inhibitory activity relative to Ac-V4W/H9A [1]: 2.5 fold
1.2 | 45 | 45 | G(-1)/V4W/H9A/N14 (peptide) | –
